Consider 1 molecule from publication PMC6319338, “Insight into the PTEN – p85α interaction and lipid binding properties of the p85α BH domain” (Oncotarget, 2018).

This assay has as its target T1, purified p85α wild type (cleaved from GST) (bovine, UniProt P23727 1-724).
T1 construct: p85α (PI3K regulatory subunit alpha), bovine, residues 1-724; also called wild type p85α; source: E. coli, expressed as GST fusion, cleaved from GST, purified; not shown: GST, N-terminal, cleaved
Kind of assay: pull-down; GST-PTEN (wild type or mutant; 5 μg) immobilized on glutathione Sepharose beads; precleared purified p85α cleaved from GST (5 μg in 1% milk, 500 μl PBS pH 7.3); 30 minutes at room temperature; 5 washes; anti-p85α immunoblot, quantified with Odyssey software. To be noted: both partners purified.

B1: GST-PTEN wild type (1–403) (natural protein)
chain: not shown
notes: PTEN, human, residues 1-403 (74 kDa as GST fusion); vector pGEX6P1; The activity assay used His6-PTEN instead; also called wild type PTEN; source: E. coli, GST fusion immobilized on glutathione Sepharose beads
In the case of B1, the binding result is “binds”.
